First the molecules themselves.
T1: HCoV-HKU1 spike antigens (bead panel) (HCoV-HKU1, UniProt Q5MQD0 13-1300)
T1 sequence: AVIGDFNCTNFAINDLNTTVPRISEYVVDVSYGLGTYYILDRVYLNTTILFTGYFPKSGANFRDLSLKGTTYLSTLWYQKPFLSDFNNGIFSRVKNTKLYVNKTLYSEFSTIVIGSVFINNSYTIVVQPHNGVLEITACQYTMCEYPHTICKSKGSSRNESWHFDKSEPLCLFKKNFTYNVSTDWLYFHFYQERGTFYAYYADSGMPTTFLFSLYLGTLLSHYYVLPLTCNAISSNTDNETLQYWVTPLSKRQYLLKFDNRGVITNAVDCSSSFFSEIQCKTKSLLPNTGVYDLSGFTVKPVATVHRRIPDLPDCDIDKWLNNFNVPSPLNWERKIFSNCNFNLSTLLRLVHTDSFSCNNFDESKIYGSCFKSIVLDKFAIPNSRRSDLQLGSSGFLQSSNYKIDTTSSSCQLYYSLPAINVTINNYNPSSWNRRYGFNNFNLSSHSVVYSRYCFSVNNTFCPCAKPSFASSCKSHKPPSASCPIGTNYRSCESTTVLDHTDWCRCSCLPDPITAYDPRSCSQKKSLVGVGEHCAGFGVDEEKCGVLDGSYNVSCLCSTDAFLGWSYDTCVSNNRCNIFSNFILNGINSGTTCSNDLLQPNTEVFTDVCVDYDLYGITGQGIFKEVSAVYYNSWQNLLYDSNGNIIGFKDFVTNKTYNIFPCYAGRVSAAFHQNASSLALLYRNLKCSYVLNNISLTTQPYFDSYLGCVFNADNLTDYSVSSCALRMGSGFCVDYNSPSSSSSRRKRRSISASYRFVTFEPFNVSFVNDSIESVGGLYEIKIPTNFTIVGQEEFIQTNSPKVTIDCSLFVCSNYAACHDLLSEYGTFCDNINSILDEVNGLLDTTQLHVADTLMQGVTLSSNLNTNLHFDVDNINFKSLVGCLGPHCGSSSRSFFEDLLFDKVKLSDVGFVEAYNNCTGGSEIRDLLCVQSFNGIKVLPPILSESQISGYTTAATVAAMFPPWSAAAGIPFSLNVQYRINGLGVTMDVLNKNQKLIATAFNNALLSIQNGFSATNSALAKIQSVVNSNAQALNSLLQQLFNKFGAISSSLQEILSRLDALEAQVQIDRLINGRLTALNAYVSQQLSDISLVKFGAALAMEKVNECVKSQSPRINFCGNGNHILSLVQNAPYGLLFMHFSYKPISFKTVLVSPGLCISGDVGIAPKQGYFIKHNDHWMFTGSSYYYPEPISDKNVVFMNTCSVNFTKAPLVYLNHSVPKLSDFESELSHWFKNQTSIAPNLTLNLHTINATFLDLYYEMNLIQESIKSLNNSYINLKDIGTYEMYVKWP

T2: HCoV-NL63 spike antigens (bead panel) (HCoV-NL63, UniProt Q6Q1S2 19-1296)
T2 sequence: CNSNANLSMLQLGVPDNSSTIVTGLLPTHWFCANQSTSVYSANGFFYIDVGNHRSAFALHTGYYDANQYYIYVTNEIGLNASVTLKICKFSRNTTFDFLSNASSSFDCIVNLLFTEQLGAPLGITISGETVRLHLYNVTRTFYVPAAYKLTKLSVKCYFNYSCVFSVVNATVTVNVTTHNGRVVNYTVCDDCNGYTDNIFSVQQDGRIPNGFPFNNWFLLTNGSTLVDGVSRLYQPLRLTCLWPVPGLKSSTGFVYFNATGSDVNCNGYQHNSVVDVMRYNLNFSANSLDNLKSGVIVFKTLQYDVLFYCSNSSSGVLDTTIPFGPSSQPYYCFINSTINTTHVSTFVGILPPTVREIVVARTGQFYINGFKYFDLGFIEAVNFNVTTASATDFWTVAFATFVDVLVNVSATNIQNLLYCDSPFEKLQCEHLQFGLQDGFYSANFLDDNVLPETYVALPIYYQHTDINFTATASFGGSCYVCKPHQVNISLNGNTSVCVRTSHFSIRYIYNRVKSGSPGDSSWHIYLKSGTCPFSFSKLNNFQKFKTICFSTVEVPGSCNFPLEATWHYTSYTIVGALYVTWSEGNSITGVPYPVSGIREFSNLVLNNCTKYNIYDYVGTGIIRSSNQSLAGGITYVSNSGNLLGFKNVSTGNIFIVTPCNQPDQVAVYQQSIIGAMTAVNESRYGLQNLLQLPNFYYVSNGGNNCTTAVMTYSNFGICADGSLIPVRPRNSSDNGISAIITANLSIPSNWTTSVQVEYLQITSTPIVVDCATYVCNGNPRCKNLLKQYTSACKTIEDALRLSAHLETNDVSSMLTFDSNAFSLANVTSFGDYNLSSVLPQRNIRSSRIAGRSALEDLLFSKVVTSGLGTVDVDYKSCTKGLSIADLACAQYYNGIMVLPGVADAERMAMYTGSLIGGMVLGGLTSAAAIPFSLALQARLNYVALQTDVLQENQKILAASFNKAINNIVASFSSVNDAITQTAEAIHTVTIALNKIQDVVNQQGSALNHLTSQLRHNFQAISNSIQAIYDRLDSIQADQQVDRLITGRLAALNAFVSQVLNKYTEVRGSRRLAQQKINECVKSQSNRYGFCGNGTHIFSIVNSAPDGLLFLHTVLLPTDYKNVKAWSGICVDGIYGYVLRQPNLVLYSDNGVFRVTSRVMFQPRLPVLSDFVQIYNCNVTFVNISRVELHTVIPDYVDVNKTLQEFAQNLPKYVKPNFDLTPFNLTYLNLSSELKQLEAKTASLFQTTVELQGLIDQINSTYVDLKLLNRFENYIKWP

B1: COV_1166 (antibody, V domains shown)
VH: EVQLVESGGGLVQPGGSLRLSCAVSGFTFRSFWMSWVRQTPGKGLEWVANIKEDGSEKYYVDSVKGRFTISRDNAKNSLYLQMNSLRAEDTAVYYCAREGRWELLGFAFDIWGQGTMVTVSS
VL: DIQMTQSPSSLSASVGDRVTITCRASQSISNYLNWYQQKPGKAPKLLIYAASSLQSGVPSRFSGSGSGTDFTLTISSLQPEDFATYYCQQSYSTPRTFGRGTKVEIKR
notes: human IgG1
B2: COV_1170 (antibody, V domains shown)
VH: QVQLVESGGGVVQPGRSLRLSCAASGFTFSTYAMHWVRQAPGKGLEWVALISYDGSNKYYADSVKGRFTISRDNSKNTLDLQMNSLRAEDTAVYYCARSLGGYRTGFDYWGQGTLVTVSS
VL: DIQLTQSPSFLSASVGDRVTITCRASQGISSYLAWYQQKPGKAPKLLIYAASTLQSGVPSRFSGSGSGTEFTLTISSLQPEDFATYYCQQLNSYPPFTFGPGTKVDIKR
notes: human IgG1
B3: COV_2004 (antibody, V domains shown)
VH: QVQLVQSGAEVKKPGASVKVSCKASGYTFTGYYMHWVRQAPGQGLEWMGRINPSSGGTNYAQKFQGRVTMTRDTSISTAYMELSSLRSDDTAVYYCATDGDDGENWFDPWGQGTLVIVSS
VL: DIQMTQSPSSLSASVGDRVTITCRASQGISSWLAWYQQKPEKAPKSLIYAASSLQSGVPSRFSGSGSGTDFTLTISSLQPEDFATYYCQQYNSYPYTFGQGTKLEIK
notes: human IgG1
B4: COV_2056 (SEQ ID NO:792/797) (antibody, V domains shown)
VH: EVQLVESGGGVVQPGRSLRLSCAASGFTFSIYGMHWVRQAPGKGLEWVALISYDGTNKYYADSVKGRFSISRDDSKNTLYLQMNSLRPEDTAVYYCAKVLMMGDSSGFSLGDAFDIWGQGTMVTVSS
VL: DIQMTQSPSSVSASVGDRVTITCRASQGISNWLAWYQQKPGKAPKLLIYAASSLQSGVPSRFSGSVSGTDFTLTISSLQPEDFATYYCQQANSFPLTFGGGTKVDIKR
B5: COV_1149 (antibody, V domains shown)
VH: QVQLVESGGGVVQPGRSLRLSCAASGFTFSSYGMHWVRQAPGKGLEWVAVISYDGSNKYYADSVKGRFTISRDNSKNTLYLQMNSLRAEDTAVYYCAKTGGGYSYGLGNVWGQGTLVTVSS
VL: QSALTQPASVSGSPGQSITISCTGTSSDVGGYNYVSWYQQHPGKAPKLMIYDVSNRPSGVSNRFSGSKSGNTASLTISGLQAEDEADYYCSSYTSSSTLVVFGGGTKLTVLG
notes: human IgG1
B6: COV_1151 (antibody, V domains shown)
VH: QVQVQQWGAGLLKPSETLSLTCAVYGGSFNNYYWSWIRQPPGKGLEWIGEINHSGSTNYNPSLMSRVTISVDTSKNQFSLKLTSVTAADTAVYFCARGLPVTTFFSSYYGMDVWGQGTTVTVSS
VL: EIVLTQSPGTLSLSPGERATLSCRASQSVSRTYLAWYQQKPGQAPRLLIYGASSRATGIPDRFSGSGSGTDFTLTISRLEPEDFAVYYCQHYGSSPWTFGQGTKVEIRR
notes: human IgG1
B7: COV_2048 (antibody, V domains shown)
VH: QVQLQESGPGLVKPSETLSLTCTVSGGSISNTSYYWGWIRQPPGKGLEWIGSIYRSGSTYYNPSLKSRVTISIDTSKNQFTLKLSSVTAADTAVYYCARDYYGDYSAKPMEYWGQGTLVTVSS
VL: QSALTQPRSVSGSPGQSVTISCTGTSSDVGGYNYVSWYQQHPGKAPKLLIYDVSKRPSGVPDRFSGSKSGNTASLTISGLQAEDEADYYCCSYAGSYVVFGGGAKLTVLG
notes: human IgG1
B8: COV_1144 (antibody, V domains shown)
VH: EVQLVESGGGLVQPGGSLRLSCAASGFTFRSFWMSWVRQAPGKGLEWVANIKEDASEKHYVDPVKGRFTISRDNAKNSLYLQLNSLRAEDMAVYYCARVGRGYCTNGLCYTAFEYWGQGTLVTVSS
VL: DIQMTQSPSSLSASVGDRVTITCRTSQSISNYLNWYQQKPGKAPKLLIYAASSLQSGVPSRFSGSGSGTDFTLTISSLQPEDFATYYCQQSYSTAWTFGQGTKVEIRR
notes: human IgG1
B9: COV_1201 (antibody, V domains shown)
VH: QVQLVQSGAEVKKPGASMKVSCKASGYTFTGYYIHWVRQAPGQGLEWMGRINPNSGGTNYAQKFQGRVTMTRDTSISTAYMELSRLRSDDTAVYYCAREYYYVPYGMDVWGQGTTVTVSS
VL: QSALTQPASVSGSPGQSITISCTGTSSDVGGYNFVSWYQHHPGKAPKLMIYEVSNRPSGVSNRFSGSKSGNTASLTISGLQAEDEADYYCSSYTSSSTYVFGTGTKVTVL
notes: human IgG1
B10: COV_1172 (antibody, V domains shown)
VH: QVQLQESGPGLVKPSETLSLTCTVSGGSIRSYYWSWIRQPPGKGLEWIGYIYYSGSTNYSPSLKSRVTISVDTSKNQFSLKLNSVTAADTAVYYCARRGLGYCSGDSCSNAFDIWGQGTMVTVSS
VL: DIQMTQSPSSLSASVGDRVTITCRASQSISSYLNWYQQKPGRAPELLIYDASSLQSGVPSGFSGSGSGTDFTLTISSLQPEDFATYYCQQSYSTPFTFGPGTKVDIKR
notes: human IgG1
B11: COV_2008 (antibody, V domains shown)
VH: QVRVVQSGAEVKNPGASVKVSCKVSGYTLTELSIHWVRQAPGNGLEWMGGFDPEDGETIYAQKFQGRVTMTEDTSTDTAYMELSSLRSDDTAVYYCATAGAITGTPRNFYYYYGMDVWGQGTTVTVSS
VL: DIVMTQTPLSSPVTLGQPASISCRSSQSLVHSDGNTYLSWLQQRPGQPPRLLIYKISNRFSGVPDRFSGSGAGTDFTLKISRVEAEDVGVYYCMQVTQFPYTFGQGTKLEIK
notes: human IgG1
B12: COV_2035 (antibody, V domains shown)
VH: QVQLVQSGAEVKKPGASVKVSCKVSGYTLPELSIHWVRQAPGKGLEWLGGFDPEDGKIIYAQKFQGRVTMTEDTSTDTAYMELSSLRSEDTAVYYCATSPAVVERGWFDPWGQGTLVTVSS
VL: QSALTQPPSASGSPGQSVTISCTGTSSDVGGYNYVSWYQQHPGKAPKLMIYEVSKRPSGVPDRFSGSKSGNMASLTVSGLQAEDEANYYCSSYAGSKRVFGGGTKLTVL
notes: human IgG1

The first experiment has as its target T1, HCoV-HKU1 spike antigens (bead panel). Description: multiplex bead assay.
For B1, the binding result is recorded as “no binding”. On the same count and under the same terms, to B2 belongs “no binding”; to B3, “no binding”; to B4, “no binding”. Take B5: the binding result is reported as “no binding”. The same measure, in the same setting: the same measure for B6: “no binding”.

In the case of B7, the binding result is listed as “no binding”. Regarding B8, the binding result was “no binding”. Turning to B9, the binding result was “no binding”. On the same count and under the same terms, the same measure for B10: “no binding”; for B11: “no binding”.

The next experiment deals with T2, HCoV-NL63 spike antigens (bead panel). Description: multiplex bead assay.
As to B1, the binding result is reported as “no binding”. As to B2, the binding result was “no binding”. B3: the binding result is reported as “no binding”. The same measure, in the same setting: to B4 belongs “no binding”. On to B5, for which the binding result is recorded as “no binding”. Take B6: the binding result is given as “no binding”. Take B7: the binding result was “no binding”. Regarding B8, the binding result is listed as “no binding”.

With B9, the binding result was “no binding”. For the molecule B12, the binding result is “no binding”.

Turning to B10, the binding result is “no binding”. Same read-out and setting: to B11 belongs “no binding”.

Values taken from patent US20240101645A1 (HENRY M JACKSON FOUNDATION FOR THE ADVANCEMENT OF MILITARY …, published 2024).
